Measured values published in patent US9670514B2, “Method for producing polysaccharide” (SANYO CHEMICAL INDUSTRIES, LTD., priority 2011, dated 2017).

Tests used:
Format in all cases: biochemical
Details in all cases: 30° C., pH 7.0
[1] = Activity of uridylyltransferase (G-1) to produce uridine diphosphate-glucuronic acid
Description: (§1) Reaction solution (10-1) was prepared by adding 10 μL of uridine triphosphate-monosaccharide-1-phosphate uridylyltransferase aqueous solution (G-1) obtained in Preparation 10 to 1 mL of aqueous solution (50 mM phosphate buffer (pH of 7.0) containing 100 mM sodium chloride, 10 mM magnesium chloride, 10 mM uridine triphosphate, and 10 mM N-acetylglucosamine-1-phosphate). Three such reaction solutions (10-1) were prepared and allowed to react at 30° C. for 5 minutes, 10 minutes, and 15 minutes, respectively. As for the quantity of the produced uridine diphosphate-N-acetylglucosamine, the product was detected with a UV light (260 nm) in HPLC. The activity of uridine triphosphate-monosaccharide-1-phosphate uridylyltransferase to produce uridine diphosphate-N-acetylglucosamine was determined from the amount of uridine diphosphate-N-acetylglucosamine production. The result was 0.1 U/mL.
The activity of uridine triphosphate-monosaccharide-1-phosphate uridylyltransferase to produce uridine diphosphate-glucuronic acid was determined in a similar manner as described above, except that an aqueous solution containing “10 mM glucuronic acid 1-phosphate” was used in place of “10 mM N-acetylglucosamine-1-phosphate” and “uridine diphosphate-glucuronic acid” was quantitated in place of “uridine diphosphate-N-acetylglucosamine”. The result was 5 U/μL.

[2] = Activity of uridylyltransferase (G-1) to produce uridine diphosphate-N-acetylglucosamine
Description: as §1

[3] = Specific activity of hyaluronan synthase aqueous solution (14C-glucuronic acid uptake)
Description: Reaction solution (1) was prepared by adding 10 μL of hyaluronan synthase aqueous solution (B-1) obtained in Preparation 1 to 1 mL of aqueous solution S (50 mM phosphate buffer (pH of 7.0) containing 1 mM uridine diphosphate-glucuronic acid (labeled radioactive radioactivity of 300 mCi/mmol), 1 mM uridine diphosphate-N-acetylglucosamine, 100 mM sodium chloride, 10 mM magnesium chloride, 10 mM dodecylmaltoside, and 5 mM oleic acid). Four such reaction solutions (1) were prepared and allowed to react at 30° C. for 5 minutes, 10 minutes, 15 minutes, and 20 minutes, respectively. Hyaluronan was separated from the unreacted substrate by paper chromatography (developing solvent containing 1 M ammonium acetate (pH of 5.5) and ethanol at a 7:13 ratio, hereinafter the same) using filter paper (Whatman No. 3 MM, hereinafter the same), and then the origin was cut out and immersed in a liquid scintillation cocktail. The radioactive isotope was then measured using a liquid scintillation counter. The amount of hyaluronan synthesis was calculated from the amount of uptake of ^14C-labeled glucuronic acid. The results were 1.6 mg after 5 minutes, 2.9 mg after 10 minutes, 4.2 mg after 15 minutes, and 5.5 mg after 20 minutes. The specific activity of hyaluronan synthase aqueous solution (B-1) was calculated from the relationship between the amount of hyaluronan synthesis and the reaction time. […]

[4] = Specific activity of starch synthase aqueous solution
Description: Reaction solution (13) was prepared by adding 10 μL of starch synthase aqueous solution (B-4) obtained in Preparation 13 to 1 mL of aqueous solution V (50 mM phosphate buffer (pH of 7.0) containing 100 mM uridine diphosphate-α-glucose (^14C-labeled radioactive isotope-containing uridine diphosphate-α-glucose; radioactivity of 300 mCi/mmol), 100 mM sodium chloride, 10 mM magnesium chloride, and 5 mM oleic acid). Four such solutions (13) were prepared and allowed to react at 30° C. for 5 minutes, 10 minutes, 15 minutes, and 20 minutes, respectively. Starch was separated from the unreacted substrate by paper chromatography using filter paper, and then the origin was cut out and immersed in a liquid scintillation cocktail. The radioactive isotope was then measured using a liquid scintillation counter. The yield of starch was calculated from the amount of uptake of ^14C-labeled glucose. The results were 1.3 mg after 5 minutes, 2.5 mg after 10 minutes, 3.8 mg after 15 minutes, and 5.2 mg after 20 minutes. The specific activity of starch synthase aqueous solution (B-4) was calculated from the relationship between the yield of starch and the reaction time. The result was 0.15 U/μL.

[5] = Specific activity of chondroitin synthase aqueous solution
Description: Reaction solution (11) was prepared by adding 10 μL of chondroitin synthase aqueous solution (B-2) obtained in Preparation 11 to 1 mL of aqueous solution T (50 mM phosphate buffer (pH of 7.0) containing 1 mM uridine diphosphate-glucuronic acid (^14C-labeled radioactive isotope-containing uridine diphosphate-glucuronic acid; radioactivity of 300 mCi/mmol), 1 mM uridine diphosphate-N-acetylgalactosamine, 100 mM sodium chloride, 10 mM magnesium chloride, 10 mM dodecylmaltoside, and 5 mM oleic acid). Three such reaction solutions (11) were prepared and allowed to react at 30° C. for 5 minutes, 10 minutes, and 15 minutes, respectively. Chondroitin was separated from the unreacted substrate by paper chromatography using filter paper. Subsequently, the origin was cut out and immersed in a liquid scintillation cocktail, and the radioactive isotope was then measured using a liquid scintillation counter. The yield of chondroitin was calculated from the amount of uptake of ^14C-labeled glucuronic acid. The results were 1.7 μg after 5 minutes, 3.1 μg after 10 minutes, and 4.4 μg after 15 minutes. The specific activity of chondroitin synthase aqueous solution (B-2) was calculated from the relationship between the yield of chondroitin and the reaction time. The result was 0.15 U/mL.

B1: uridine triphosphate-monosaccharide-1-phosphate uridylyltransferase aqueous solution (G-1): uridylyltransferase, SEQ ID NO: 10, derived from Arabidopsis (protein)
chain: MASTVDSNFFSSVPALHSNLGLLSPDQIELAKILLENGQSHLFQQWPELGVDDKEKLAFFDQIARLNSSYPGGLAAYIKTAKELLADSKVGKNPYDGFSPSVPSGENLTFGTDNFIEMEKRGVVEARNAAFVLVAGGLGERLGYNGIKVALPRETTTGTCFLQHYIESILALQEASNKIDSDGSERDIPFIIMTSDDTHSRTLDLLELNSYFGMKPTQVHLLKQEKVACLDDNDARLALDPHNKYSIQTKPHGHGDVHSLLYSSGLLHKWLEAGLKWVLFFQDTNGLLFNAIPASLGVSATKQYHVNSLAVPRKAKEAIGGISKLTHVDGRSMVINVEYNQLDPLLRASGFPDGDVNCETGFSPFPGNINQLILELGPYKDELQKTGGAIKEFVNPKYKDSTKTAFKSSTRLECMMQDYPKTLPPTARVGFTVMDIWLAYAPVKNNPEDAAKVPKGNPYHSATSGEMAIYRANSLILQKAGVKVEEPVKQVLNGQEVEVWSRITWKPKWGMIFSDIKKKVSGNCEVSQRSTMAIKGRNVFIKDLSLDGALIVDSIDDAEVKLGGLINNGWTMESVDYKDTSVPEEIRIRGFRFNKVEQLEKKLTQPGKFSVED
modifications: aqueous solution; Arabidopsis
activity to produce uridine diphosphate-glucuronic acid [1]: 5 U/μL | activity to produce uridine diphosphate-N-acetylglucosamine [2]: 0.1 U/mL

B2: hyaluronan synthase aqueous solution (B-1): FLAG-tagged hyaluronan synthase, SEQ ID NO: 1, from Streptococcus equisimilis, expressed in E. coli (protein)
chain: MPIFKKTLIVLSFIFLISILIYLNMYLFGTSTVGIYGVILITYLVIKLGLSFLYEPFKGNPHDYKVAAVIPSYNEDAESLLETLKSVLAQTYPLSEIYIVDDGSSNTDAIQLIEEYVNREVDICRNVIVHRSLVNKGKRHAQAWAFERSDADVFLTVDSDTYIYPNALEELLKSFNDETVYAATGHLNARNRQTNLLTRLTDIRYDNAFGVERAAQSLTGNILVCSGPLSIYRREVIIPNLERYKNQTFLGLPVSIGDDRCLTNYAIDLGRTVYQSTARCDTDVPFQLKSYLKQQNRWNKSFFRESIISVKKILSNPIVALWTIFEVVMFMMLIVAIGNLLFNQAIQLDLIKLFAFLSIIFIVALCRNVHYMVKHPASFLLSPLYGILHLFVLQPLKLYSLCTIKNTEWGTRKKVTIFK
modifications: FLAG tag; aqueous solution; STREPTOCOCCUS
specific activity [3]: 0.15 U/μL

B3: starch synthase aqueous solution (B-4): starch synthase, SEQ ID NO: 13, derived from Saccharomyces cerevisiae (protein, listed as Saccharomyces cerevisiae)
chain: MSRDLQNHLLFETATEVANRVGGIYSVLKSKAPITVAQYKDHYHLIGPLNKATYQNEVDILDWKKPEAFSDEMRPVQHALQTMESRGVHFVYGRWLIEGAPKVILFDLDSVRGYSNEWKGDLWSLVGIPSPENDFETNDAILLGYTVAWFLGEVAHLDSQHAIVAHFHEWLAGVALPLCRKRRIDVVTIFTTHATLLGRYLCASGSFDFYNCLESVDVDHEAGRFGIYHRYCIERAAAHSADVFTTVSQITAFEAEHLLKRKPDGILPNGLNVIKFQAFHEFQNLHALKKEKINDFVRGHFHGCFDFDLDNTLYFFIAGRYEYKNKGADMFIEALARLNYRLKVSGSKKTVVAFIVMPAKNNSFTVEALKGQAEVRALENTVHEVTTSIGKRIFDHAIRYPHNGLTTELPTDLGELLKSSDKVMLKRRILALRRPEGQLPPIVTHNMVDDANDLILNKIRQVQLFNSPSDRVKMIFHPEFLNANNPILGLDYDEFVRGCHLGVFPSYYEPWGYTPAECTVMGVPSITTNVSGFGAYMEDLIETNQAKDYGIYIVDRRFKAPDESVEQLVDYMEEFVKKTRRQRINQRNRTERLSDLLDWKRMGLEYVKARQLALRRGYPDQFRELVGEELNDSNMDALAGGKKLKVARPLSVPGSPRDLRSNSTVYMTPGDLGTLQEVNNADDYFSLGVNPAADDDDDGPYADDS
specific activity [4]: 0.15 U/μL

B4: chondroitin synthase aqueous solution (B-2): chondroitin synthase, SEQ ID NO: 11, derived from Pasteurella multocida (protein, listed as Pasteurella multocida)
chain: MNTLSQAIKAYNSNDYELALKLFEKSAETYGRKIVEFQIIKCKEKLSTNSYVSEDKKNSVCDSSLDIATQLLLSNVKKLTLSESEKNSLKNKWKSITGKKSENAEIRKVELVPKDFPKDLVLAPLPDHVNDFTWYKNRKKSLGIKPVNKNIGLSIIIPTFNRSRILDITLACLVNQKTNYPFEVVVADDGSKENLLTIVQKYEQKLDIKYVRQKDYGYQLCAVRNLGLRTAKYDFVSILDCDMAPQQLWVHSYLTELLEDNDIVLIGPRKYVDTHNITAEQFLNDPYLIESLPETATNNNPSITSKGNISLDWRLEHFKKTDNLRLCDSPFRYFSCGNVAFSKEWLNKVGWFDEEFNHWGGEDVEFGYRLFAKGCFFRVIDGGMAYHQEPPGKENETDREAGKSITLKIVKEKVPYIYRKLLPIEDSHIHRIPLVSIYIPAYNCANYIQRCVDSALNQTVVDLEVCICNDGSTDNTLEVINKLYGNNPRVRIMSKPNGGIASASNAAVSFAKGYYIGQLDSDDYLEPDAVELCLKEFLKDKTLACVYTTNRNVNPDGSLIANGYNWPEFSREKLTTAMIAHHFRMFTIRAWHLTDGFNENIENAVDYDMFLKLSEVGKFKHLNKICYNRVLHGDNTSIKKLGIQKKNHFVVVNQSLNRQGINYYNYDKFDDLDESRKYIFNKTAEYQEEMDILKDLKLIQNKDAKIAVSIFYPNTLNGLVKKLNNIIEYNKNIFVIILHVDKNHLTPDIKKEILAFYHKHQVNILLNNDISYYTSNRLIKTEAHLSNINKLSQLNLNCEYIIFDNHDSLFVKNDSYAYMKKYDVGMNFSALTHDWIEKINAHPPFKKLIKTYFNDNDLRSMNVKGASQGMFMKYALPHELLTIIKEVITSCQSIDSVPEYNTEDIWFQFALLILEKKTGHVFNKTSTLTYMPWERKLQWTNEQIQSAKKGENIPVNKFIINSITL
modifications: aqueous solution
specific activity [5]: 0.15 U/mL
